{"source": "patent CN117603358A", "about": "(INST MICROBIOLOGY CAS; 3SBIO GROUP; SHANXI ADVANCED …, dated 2024)", "target": "S蛋白, SARS-CoV-2原型毒株 (SARS-CoV-2 (prototype), UniProt P0DTC2 14-1273)", "experiment": "cell-based or functional assay", "data": [{"binder": "L4.65单抗 (antibody, V domains shown) VH: QITLKESGPTLVKPTQTLTLTCTFSGFSLSTSGVGVAWIRQPPGKALEWLALIYWDNDKRSSPSLNNRLTITKDTSKNQVVLTMTNMDPEDTATYYCAHFFSHYDSSNYYYGSWFDPWGQGTLVTVSS VL: EIVLTQSPGTLSLSPGERATLSCRASQSFDSRYLGWYQQKSGQAPRLLIYGASSRATGIPDRFSGSGSGTDFTLTISRLEPEDFAVYYCQQFGDSPFTFGQGTKLEIKR", "values": [{"measurement": "假病毒中和效果 IC50", "value": 0.000709, "unit": "µg/mL"}]}, {"binder": "CoV56单抗 (antibody, V domains shown) VH: EVQLVESGGGVVQPGGSLRLSCAVSGFTFDDYAMHWVRQAPGKGLDWVSLISGDGSYTYYADSVKGRFTISRDSSKNSLYLQMNSLRTEDTALYYCAKAQTPTLWWLQDAFDIWGQGTMVTVSS VL: not shown", "values": [{"measurement": "假病毒中和效果 IC50", "value": 8.38, "unit": "µg/mL"}]}]}
